One data set has as its system T1, H1.0K180me2 peptide.
T1 sequence: AKPVKASKPKKAKPVKPK

The next data set deals with T2, unmodified H1.0 peptide.
T2 sequence: AKPVKASKPKKAKPVKPK

For data set [1], the system named is full length human H1.0 protein.

These results are taken from patent publication US20210302429.

Take G9A methyltransferase: in the data set on H1.0K180me2 peptide, the “further methylated peptide H1.0K166me1K180me2, LC-MS” value was 1.27% of the total peptide in the reaction; the “further methylated peptide H1.0K174me1K180me3, LC-MS” value was 1.06% of the total peptide in the reaction; the “further methylated peptide H1.0K174me3K175me3K177me1K180me2, LC-MS” value is given as 0.35% of the total peptide in the reaction; the “peptides further methylated, LC-MS” value is recorded as “only 2.64% of peptides are further methylated”. In the data set with unmodified H1.0 peptide, the “estimated methylation efficiency, LC-MS” value was “an estimated methylation efficiency of about 99%”; the “in vitro methylation with tritium-labeled methyl donor, gel autoradiography” value was “The appearance of a band at 4 kDa shows that The G9A methyltransferase capable of methylating H1.0 peptide”; the “peptides dimethylated at K180, LC-MS spectral counts” value was 99.9% of all peptides. In addition, in data set [1], the “in vitro methylation assay with increasing amounts of G9A” value is on record as “G9A is capable of dimethylating full length H1.0 at K180” and the “sites of methylation, LC-MS” value was “G9A methylates C-terminal lysine residues, including H1.0K180me2”.
For the substance GLP methyltransferase, in the data set with H1.0K180me2 peptide, the “peptides further methylated, LC-MS” value is 1.02% of peptides are further methylated. Further, in the data set on unmodified H1.0 peptide, the “peptides dimethylated at K180, LC-MS spectral counts” value is listed as 96.6% of all peptides. For the same substance, the “sites of methylation, LC-MS” value in data set [1] is “GLP methylates a large number of lysine residues on the C-terminal tail of H1.0, lacking the specificity of G9A”.
